{"source": "paper PMC3458533", "binders": {"B1": {"name": "MwoI target oligonucleotide (dsDNA)", "DNA 1": "CGGCTGTAGTCGCAC", "DNA 2": "GTGCGACTACAGCCG"}, "B2": {"name": "G/C (GCGN5CGC) (dsDNA)", "DNA 1": "GACAGTGCGATCTCCGCGACAGT", "DNA 2": "ACTGTCGCGGAGATCGCACTGTC"}, "B3": {"name": "C/G (GCCN5GGC) (dsDNA)", "DNA 1": "GACAGTGCCATCTCGGCGACAGT", "DNA 2": "ACTGTCGCCGAGATGGCACTGTC"}, "B4": {"name": "A/T (GCAN5TGC) (dsDNA)", "DNA 1": "GACAGTGCAATCTCTGCGACAGT", "DNA 2": "ACTGTCGCAGAGATTGCACTGTC"}}, "test_in_all_cases": "filter binding", "key": {"R.MwoI D110A": {"molecular_target": "T1, R.MwoI D110A (Methanothermobacter wolfeii (DSMZ), UniProt O59646 1-363, D110A)", "T1 sequence": "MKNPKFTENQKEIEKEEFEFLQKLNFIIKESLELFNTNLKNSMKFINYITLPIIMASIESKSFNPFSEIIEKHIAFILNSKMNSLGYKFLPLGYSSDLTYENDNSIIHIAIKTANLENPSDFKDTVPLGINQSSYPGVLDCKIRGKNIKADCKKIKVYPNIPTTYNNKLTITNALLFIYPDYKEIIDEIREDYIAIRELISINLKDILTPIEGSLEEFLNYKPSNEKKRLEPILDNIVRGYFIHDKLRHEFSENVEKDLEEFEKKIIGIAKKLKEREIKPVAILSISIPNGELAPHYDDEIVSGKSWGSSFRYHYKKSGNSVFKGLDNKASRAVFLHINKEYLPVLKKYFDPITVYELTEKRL"}, "R.MwoI E68A": {"molecular_target": "T2, R.MwoI E68A (Methanothermobacter wolfeii (DSMZ), UniProt O59646 1-363, E68A)", "T2 sequence": "T1 sequence with E68A, A110D"}, "R.MwoI A330R": {"molecular_target": "T3, R.MwoI A330R (Methanothermobacter wolfeii (DSMZ), UniProt O59646 1-363, A330R)", "T3 sequence": "T1 sequence with A110D, A330R"}, "R.MwoI K112A": {"molecular_target": "T4, R.MwoI K112A (Methanothermobacter wolfeii (DSMZ), UniProt O59646 1-363, K112A)", "T4 sequence": "T1 sequence with A110D, K112A"}, "R.MwoI T125R": {"molecular_target": "T5, R.MwoI T125R (Methanothermobacter wolfeii (DSMZ), UniProt O59646 1-363, T125R)", "T5 sequence": "T1 sequence with A110D, T125R"}, "R.MwoI S310A": {"molecular_target": "T6, R.MwoI S310A (Methanothermobacter wolfeii (DSMZ), UniProt O59646 1-363, S310A)", "T6 sequence": "T1 sequence with A110D, S310A"}, "R.MwoI S310D": {"molecular_target": "T7, R.MwoI S310D (Methanothermobacter wolfeii (DSMZ), UniProt O59646 1-363, S310D)", "T7 sequence": "T1 sequence with A110D, S310D"}, "R.MwoI S310K": {"molecular_target": "T8, R.MwoI S310K (Methanothermobacter wolfeii (DSMZ), UniProt O59646 1-363, S310K)", "T8 sequence": "T1 sequence with A110D, S310K"}}, "note": "Where a chain is given by its changes, count along the chain named.", "data": [{"binder": "B1", "values": [{"measurement": "binding signal", "setting": "R.MwoI D110A", "value": "25 % of wt"}, {"measurement": "binding signal", "setting": "R.MwoI E68A", "value": "> 350 % of wt"}, {"measurement": "binding signal", "setting": "R.MwoI A330R", "value": "> 350 % of wt"}, {"measurement": "binding signal", "setting": "R.MwoI K112A", "value": "114 % of wt"}, {"measurement": "binding signal", "setting": "R.MwoI T125R", "value": "42 % of wt"}, {"measurement": "binding signal", "setting": "R.MwoI S310A", "value": "53 % of wt"}]}, {"binder": "B2", "values": [{"measurement": "binding result", "setting": "R.MwoI S310D", "value": "binds"}]}, {"binder": "B3", "values": [{"measurement": "binding result", "setting": "R.MwoI S310K", "value": "binds"}]}, {"binder": "B4", "values": [{"measurement": "binding result", "setting": "R.MwoI S310D", "value": "binds"}]}]}
